The values below come from the DeepSol protein solubility set.

The series in a line: soluble on expression in E. coli; label from the status in PepcDB or PDB records.
As for “MAHHHHHHMMLHTRRTVYSCICVHTHTHTHTCGCPPPTLSQKKKRSRLFMSSSSGDEYDPAEVTVHTTVASPSLSDTVVPSAAPFLRSAAGNASAATVAAAPALASLPKTAASVLPSSSSPTPPNTGNDVDGGYRLHSNIKGRIRCLTLNTAGTTLCAGSEDGQLCMWDFTVPLKSYRVQPTRVLTPFVNRISGLQPIIALTCASDDSYFVACQDGDSPVLVRASGEQLGYCAIGERGLMDVIQCKGHRAPVTCVAAHTHDAAAFFTGSQDGTVRLWNTATFKQRSVYAVKHGSGQLTDTHAVESVASLDSFHNGLGRVFASGGQDGRVQIWDSRVKYRPGGAIATVDMYAAAAPAGPDKVTEDPFMEKHVGGMMELHQKDAGASNASGSYGLAVRLGSAVKIIDLRQLSHSDGTTAPKAVLQEAATGLPHVLDTSALSIGRGGGSSTMMTCTSRVGYRHTKGGHVVQYRYADGDRLVPTLVWRAGKQDEDVLCACADISRADGCVFAGLSSGDVVVHGAFSSGAAAPQPMEAWLQTRPQREGYERAVGVKAPRAVEDDADLLRDLF”, the “soluble on expression in E. coli” value was “not soluble”.
In the case of “MFCTFFEKHHRKWDILLEKSTGVMEAMKVTSEEKEQLSTAIDRMNEGLDAFIQLYNESEIDEPLIQLDDDTAELMKQARDMYGQEKLNEKLNTIIKQILSISVSEEGEKE” it was “soluble”; in that of “MSLKLLAIAPYEGLRQLFLRVAEEEGLSIKAEVGNLDEGVRLAKKAADESFDVIISRGGTATLIQQHLSIPVVEIEISGYDLLKNLLFLKEYPDKKAIVGFPQITNGVQLINELLDVSFSTVTIHSEGEAIHALKELKAQGFESVLGDVITVNEAERLGMNGFLLSSGEESVRKAFNQAKRVVKALGRDRLNYELPLSYLHEQERGLVLLDQNNDVCFVNEFAKKFQLMEFINDHSFMRQLRTPRETGAFSWSDGHSVWYIRYKAIGNQGLAIEFAQLNERVLNDHPKEGHHHHHH”, “soluble”.
On to “MSRPDQAKVTVAKGDIKAIAAALDMYKLDNFAYPSTQQGLEALVKKPTGNPQPKNWNKDGYLKKLPVDPWGNPYQYLAPGTKGPFDLYSLGADGKEGGSDNDADIGNWDN”, for which the “soluble on expression in E. coli” value was “soluble”.
With “MELNMLYLFTASNDSAIKNLEATIEKIYPISTCLADLDADTVTKLKDNELHENVCMWGATPGSSNVDRWEKLKEGDRILAYSKGEFKFFGTIFAKTHNPDVARKI”, the “soluble on expression in E. coli” value was “not soluble”.
The result for “MYRTPAAIVADATVGIPLVRFVTEEMEMTPELVALYTSHRSVWELLEGELKSLGLNPKVVYGTDVYKTRKSLQEVRPRVVFGSTIERHASEGLPVAYVVEVVRMMRQFRMINREYFGYTGILNLLECVQNEWVMGWRSKELEHHHHHH” reads “not soluble”.
For “MAEGERLYLCGEFTKAIQSFTNALHLQSGDKNCLVARSKCYLKMGDLEKSLNDAEASLRNDPTFCKGILQKAETLYTMGDFEFALVFYHRGYKLRPDREFKVGIQKAQEAINNSVGSPSSIKLENKGDLSFLSKQAESKKAQQKHLPIKQLSYSTKHEIKRKGSLKSEKTVRQLLGELYVDKEYLEKLLLDEDLIKGTIKSGLTVEDLIMTGINYLDTRSNFWRQQKPIYARERDRKLMQEKWLRDRKRSPSQTAHYILKSLEDIDMLLTSGSADGSLQKAEKVLKKVLEWNQEEVPNKDELVGNLYSCIGNAQIELGQMVAALQSHRKDLEIAKEHDLPDAKSRALDNIGRVFARVGKFQQAIDVGGEDPSSQNHPGEDLALPRDWPLLLGAGPGVAGPELWGKVSAVR”, the “soluble on expression in E. coli” value was “soluble”.
The result for “MGSDKIHHHHHHGCSDVNQLLGNEESVDYKSTRRGDPLSIPPDLTQANNDPRYKAPASGTATYSQFQQQGLQQQASAGQNTNVLPERADMRVERDGDLRWLVIERPPEQLFPKVVDFWTDTGFTVSVNNPQAGIIETDWAENRAKIPESWLRQVLGSVLETAWDSGEREKFRTRVERVNGHTEIYITHNQMLEKRVGSDGGQVQWTHGKEDPGLNAAMLARLMVYLGTDVDAARKLVAQAEAAPQAPKVQSVRAEGAMLVVDESFDRAWRRVGVALDSGGFAVDDRDRSAGEYFVRYVDTDTGAQNEQPGFFSRLFSSDKKAQAPQYRIRLTGSGTQTQVTVLDANGQRDSSATAQRMLSVLKDKMV” reads “not soluble”; that for “MSLELLIPQLEFLNEEGAQAEVWALSRIFLDTLVKETGQKVKAIFPDAGAAALLKYQWTDAEFKCASLSDRKPVDVEDEVVVMIIPDHQMVESVERIASQLSDDPIRPLVMWNPRLVSGDVGVGFNVRNLRRNFLSTFTTVYSMRPLPTGAVFRQYPGKWKVFYDDPKRPNRYLLARELVSRPDATDIEIIFGGGDEQSDEAPSLMNNVMGVFSSVSRFMRVISKEGHHHHHH”, “not soluble”.
